According to the RNAGym collection of RNA variant scans (doi:10.1073/pnas.2313332121):
This sample holds only a part of the variants without activity.

B1: TPR 5TU (parent)
chain: GGAUCUUCUCGAUCUAACAAAAAAGACAAAUCUGCCACAAAGCUUGAGAGCAUCUUCGGAUGCAGAGGCGGCAGCCUUCGGUGGCGCGAUAGCGCCAACGUUCUCAACUAUGACACGCAAAACGCGUGCUCCGUUGAAUGGAGUUUAUCAUG

Variants of: B1
Test: polymerase ribozyme fitness, log enrichment relative to wild type (log ratio); higher = more active; in vitro selection for triplet polymerase activity
Outline: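 Mutant libraries for each subunit of a heterodimeric triplet polymerase ribozyme were made by PCR and then transcribed. Each library underwent one round of in vitro selection in triplicate: annealing with a biotinylated primer, the partner subunit and triplets, frozen incubation at −7 °C, gel excision of extended constructs, streptavidin-bead capture and RT-PCR. Input and output libraries were Illumina-sequenced, and only genotypes with ≥10 input reads and ≥1 read per output were kept. Fitness is the logarithm, base 2, of genotype enrichment over wild-type enrichment, computed from inverse-variance-weighted replicate averages.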
For A20U G48A A60G U139A A142C A147G, the “polymerase ribozyme fitness (log ratio)” value was ≤ -4.2. For U31G C99U C116U A137G, the “polymerase ribozyme fitness (log ratio)” value was -1.84. For A23C U44C A64C G92C A97U, the “polymerase ribozyme fitness (log ratio)” value was ≤ -4.2. In the case of A52G C54A, the “polymerase ribozyme fitness (log ratio)” value is reported as -0.998. With A21G A40U U56A C132A the “polymerase ribozyme fitness (log ratio)” value was -3.09. With A28C G42C C76G C79G G86C U90G A97G U145C the “polymerase ribozyme fitness (log ratio)” value was ≤ -4.2. With A41C G59C U82C G86C C108G G141U the “polymerase ribozyme fitness (log ratio)” value was ≤ -4.2. For U33A C85U, the “polymerase ribozyme fitness (log ratio)” value was -3.79. In the case of U13C G94C, the “polymerase ribozyme fitness (log ratio)” value is reported as -0.0586. In the case of A39G U77A G143C, the “polymerase ribozyme fitness (log ratio)” value is reported as ≤ -4.2. In the case of C85U C103U, the “polymerase ribozyme fitness (log ratio)” value is reported as -2.17. For A39C U56A G59C, the “polymerase ribozyme fitness (log ratio)” value was -2.08. In the case of U45G G80C A106G A119U A121U G124C G133U, the “polymerase ribozyme fitness (log ratio)” value is reported as ≤ -4.2. In the case of G34A C79U A107C C108G C116G, the “polymerase ribozyme fitness (log ratio)” value is reported as ≤ -4.2. In the case of G92A G117C, the “polymerase ribozyme fitness (log ratio)” value is reported as -2.82. In the case of G86A A122G U148G, the “polymerase ribozyme fitness (log ratio)” value is reported as ≤ -4.2. With C8A C18U C35G C57U C76A G92U G117C U134A the “polymerase ribozyme fitness (log ratio)” value was ≤ -4.2. In the case of C43A A52C C75U U90G C95U C96G C114G U144G, the “polymerase ribozyme fitness (log ratio)” value is reported as ≤ -4.2. With C38U G58C C96U A98G the “polymerase ribozyme fitness (log ratio)” value was 0.385. In the case of A28G A107G U144C, the “polymerase ribozyme fitness (log ratio)” value is reported as ≤ -4.2. For U56A C57U G83A, the “polymerase ribozyme fitness (log ratio)” value was 0.0377. For G83U A121C A142U, the “polymerase ribozyme fitness (log ratio)” value was -1.46. With C38U G88C G126C A147C the “polymerase ribozyme fitness (log ratio)” value was ≤ -4.2. In the case of A40C C54U G141U, the “polymerase ribozyme fitness (log ratio)” value is reported as 0.7. In the case of A30G A40G U45G C79G A89C G94U U145A, the “polymerase ribozyme fitness (log ratio)” value is reported as ≤ -4.2. With C69U G70A C99A G100A the “polymerase ribozyme fitness (log ratio)” value was ≤ -4.2. In the case of A26U C35U A47C C54G A64G A66U C93A A142G, the “polymerase ribozyme fitness (log ratio)” value is reported as ≤ -4.2. In the case of G58A G59U G62C G67U A73U C96A U130G A138U A150G, the “polymerase ribozyme fitness (log ratio)” value is reported as ≤ -4.2. In the case of A3U A16C A52U C57U C76U G86U, the “polymerase ribozyme fitness (log ratio)” value is reported as ≤ -4.2. With A19G A37U U101G the “polymerase ribozyme fitness (log ratio)” value was -2.14. In the case of A37C G46A U61A G74A C93U A122U, the “polymerase ribozyme fitness (log ratio)” value is reported as ≤ -4.2. For G74C C118U, the “polymerase ribozyme fitness (log ratio)” value was -4.02. In the case of A28U A41C C75U G81A C103G C149G, the “polymerase ribozyme fitness (log ratio)” value is reported as ≤ -4.2. With A47G A49U G50C C57U A107C A150C the “polymerase ribozyme fitness (log ratio)” value was ≤ -4.2. With U7G A20C A40C G48U A64U A89U G92U U101C C132A the “polymerase ribozyme fitness (log ratio)” value was ≤ -4.2. For C36U G58A C87A C131U G143A, the “polymerase ribozyme fitness (log ratio)” value was ≤ -4.2. In the case of C76A G128C, the “polymerase ribozyme fitness (log ratio)” value is reported as -3.67. For A12U A20G U56A C75G A121G, the “polymerase ribozyme fitness (log ratio)” value was ≤ -4.2. For A24U G68A, the “polymerase ribozyme fitness (log ratio)” value was -3.78. For A24U G46C A73G C87U G92C, the “polymerase ribozyme fitness (log ratio)” value was -3.37. With G42A G59A U102G the “polymerase ribozyme fitness (log ratio)” value was ≤ -4.2. In the case of C99G G124A G141U, the “polymerase ribozyme fitness (log ratio)” value is reported as -0.199. In the case of C54U G58A G92A U145A, the “polymerase ribozyme fitness (log ratio)” value is reported as -3.35. For U55A U109G A137U, the “polymerase ribozyme fitness (log ratio)” value was -4.19. With A3G A20C A29U A41G C54U C87U C95U U135G the “polymerase ribozyme fitness (log ratio)” value was ≤ -4.2. With A17U U53G C99A C125G G141U U146C the “polymerase ribozyme fitness (log ratio)” value was ≤ -4.2. In the case of G50U G70A G136U, the “polymerase ribozyme fitness (log ratio)” value is reported as ≤ -4.2. For C5U U15G A39C A66U C95U, the “polymerase ribozyme fitness (log ratio)” value was -4.2. For U31A C38A G50C C85U, the “polymerase ribozyme fitness (log ratio)” value was ≤ -4.2. In the case of C51G A106G, the “polymerase ribozyme fitness (log ratio)” value is reported as -3.04. For U4A A12U G80U G81U G92C, the “polymerase ribozyme fitness (log ratio)” value was -0.513. For G84C A121U A122C, the “polymerase ribozyme fitness (log ratio)” value was -1.63. For A16C G25U U61G G88U C93U G136A A147C U148C, the “polymerase ribozyme fitness (log ratio)” value was ≤ -4.2. In the case of A52G C93U C116U, the “polymerase ribozyme fitness (log ratio)” value is reported as -1.48. With A12C A20C U53A C76A U151G the “polymerase ribozyme fitness (log ratio)” value was ≤ -4.2. For A49C U77G A121C U148A, the “polymerase ribozyme fitness (log ratio)” value was ≤ -4.2. In the case of A12G C14U, the “polymerase ribozyme fitness (log ratio)” value is reported as -0.925. With A49C G50C A91U C96G the “polymerase ribozyme fitness (log ratio)” value was ≤ -4.2. With A17G G59U G80A C85A the “polymerase ribozyme fitness (log ratio)” value was -0.447. In the case of U45G A52U, the “polymerase ribozyme fitness (log ratio)” value is reported as -3.15. For G124A G140C, the “polymerase ribozyme fitness (log ratio)” value was -3.89. With C69G U77C C87U G140U the “polymerase ribozyme fitness (log ratio)” value was ≤ -4.2. With G83A A115G the “polymerase ribozyme fitness (log ratio)” value was -1.64. For C57U C85U A89C U127A, the “polymerase ribozyme fitness (log ratio)” value was -4.18. In the case of C18G A120C, the “polymerase ribozyme fitness (log ratio)” value is reported as -1.21. With A64C C85A the “polymerase ribozyme fitness (log ratio)” value was ≤ -4.2. In the case of G59A A110U, the “polymerase ribozyme fitness (log ratio)” value is reported as -3.64. In the case of G71A U104C, the “polymerase ribozyme fitness (log ratio)” value is reported as -3.42. For A26C C35U U55A C76U C87G G92U A98G, the “polymerase ribozyme fitness (log ratio)” value was -3.11. With A39C G59C G86A the “polymerase ribozyme fitness (log ratio)” value was -3.73. In the case of C18A A23G A28C C43U A52C U146A, the “polymerase ribozyme fitness (log ratio)” value is reported as ≤ -4.2. For A20U U31C A49C C57U A60G G62C C96A, the “polymerase ribozyme fitness (log ratio)” value was -4.15. With U4C G86U the “polymerase ribozyme fitness (log ratio)” value was -1.9. For A16G C27U, the “polymerase ribozyme fitness (log ratio)” value was -2. In the case of A3U G59U U82A C93A A142C, the “polymerase ribozyme fitness (log ratio)” value is reported as ≤ -4.2. With C69U G100A A137C the “polymerase ribozyme fitness (log ratio)” value was ≤ -4.2. For U33A A37G C105U A106G, the “polymerase ribozyme fitness (log ratio)” value was -4.07. With G48A A52U G86U the “polymerase ribozyme fitness (log ratio)” value was ≤ -4.2. For A20G C69U G84C G126C G136A, the “polymerase ribozyme fitness (log ratio)” value was -1.72. For A19U A22C G94C C96G C123U G128A U139C U146C, the “polymerase ribozyme fitness (log ratio)” value was ≤ -4.2. In the case of C36A G62C C63U, the “polymerase ribozyme fitness (log ratio)” value is reported as ≤ -4.2. For U13C G58U G94U C95U A142G U144G, the “polymerase ribozyme fitness (log ratio)” value was -4.05. For U6C A24U A40C U56A A73U C76G C129U, the “polymerase ribozyme fitness (log ratio)” value was ≤ -4.2. In the case of C69A G84A U104G C125U G126A A142C, the “polymerase ribozyme fitness (log ratio)” value is reported as ≤ -4.2.
